# Assay: soluble on expression in E. coli; label from the status in PepcDB or PDB records
row,Sequence,soluble on expression in E. coli
1,MQSVDVAIVGGGMVGLAVACGLQGSGLRVAVLEQRVQEPLAANAPPQLRVSAINAASEKLLTRLGVWQDILSRRASCYHGMEVWDKDSFGHISFDDQSMGYSHLGHIVENSVIHYALWNKAHQSSDITLLAPAELQQVAWGENETFLTLKDGSMLTARLVIGADGANSWLRNKADIPLTFWDYQHHALVATIRTEEPHDAVARQVFHGEGILAFLPLSDPHLCSIVWSLSPEEAQRMQQASEDEFNRALNIAFDNRLGLCKVESARQVFPLTGRYARQFASHRLALVGDAAHTIHPLAGQGVNLGFMDAAELIAELKRLHRQGKDIGQYIYLRRYERSRKHSAALMLAGMQGFRDLFSGTNPAKKLLRDIGLKLADTLPGVKPQLIRQAMGLNDLPEWLRLEHHHHHH,not soluble
2,MNRYPGIPRNEWSAGWKRTACIVKAEDGSWGFGFTLHSGVTERIINDHLSKILIGRNCMSTEMLWDVMQQSTISYGTSGLSSFAISAVDNAIWDLKGKILDRPVYELIGGPQKDKIFCYASNTSFEYGTKNSIEWFLELGFKAVKLFLREGPESNLEGINRAEQLVASTREQVGKDVEIAVDAWMSLNNEYAVRLAEVLKPYRIKWLEDYLNPENLDGYQNLRNRIPWQTLATGEHWYSLYPFALAASKGIVDIFQPDLNWVGGITAGIKICHLAEAHGLSVIPHASTNYPYGQHLAFSMPSVPWAERSEGVSPPGVPLEEMVLLPGTPVIKDGYIIPSDAPGFGLEITEDWLRDRAV,soluble
3,MSLTKMRESEIIRMFIEEFDNHALGDDAGFVRFNDSWLLVTSDMLVWRTDVPDFMTPEEAGKKVVTMNVSDIAAMGGLPLAFFFSLGVPENTDEKTLRGIAKGINKGAKEYGVKIVSGDTNEAREIIIDGGAIGRGSRLLLRSNAKPGDLVCVTGELGRPLTALLLWLKGEEIPPKILEKAKNPKAREREGIELSNYANSAIDISDGLSKELWEIARSSNVRIVIDEDKIPVNEEVREIVKDPIKIALASGEEFELVFTIPKENLGNISFDFTIIGRVEEGEGVYIKREDKMERLPILGWEHLKGGDYVNLEGHHHHHH,soluble
4,MILMIDNYDSFTFNLVQFLGELGQELVVKRNDEVTISDIENMKPDFLMISPGPCSPNEAGISMDVIRYFAGKIPIFGVCLGHQSIAQVFGGEVVRAERLMHGKTSPMHHDGKTIFSDIPNPFTATRYHSLIVKKETLPDCLEVTSWTEEGEIMALRHTTLPIEGVQFHPESIMTSHGKELLQNFIRKYSPSVTSC,not soluble
5,EVKLLESGGGLAQPGGSLKLSCAASGFDFRRYWMTWVRQAPGKGLEWIGEINPDSRTINYMPSLKDKFIISRDNAKNSLYLQLSRLRSEDSALYYCVRLDFDVYNHYYVLDYWGQGTSVTVSSASTKGPSVFPLAPSSKSTSGGTAALGCLVKDYFPEPVTVSWNSGALTSGVHTFPAVLQSSGLYSLSSVVTVPSSSLGTQTYICNVNHKPSNTKVDKKVEPKSCD,soluble
6,MGHHHHHHSHMKIELSMQPWNPGYSSEGATAQETYTCPKMIEMEQAEAQLAELDLLASMFPGENELIVNDQLAVAELKDCIEKKTMEGRSSKVYFTINMNLDVSDEKMAMFSLACILPFKYPAVLPEITVRSVLLSRSQQTQLNTDLTAFLQKHCHGDVCILNATEWVREHASGYVSRDTSSSPTTGSTVQSVDLIFTRLWIYSHHIYNKCKRKNILEWAKELSLSGFSMPGKPGVVCVEGPQSACEEFWSRLRKLNWKRILIRHREDIPFDGTNDETERQRKFSIFEEKVFSVNGARGNHMDFGQLYQFLNTKGCGDVFQMFFGVEGQ,not soluble
7,MGSDKIHHHHHHMVTYVIQGILKEEEDRMVRRSFLIKGNEIAYVNGRLDKLTFIRMNGDQFCMAPGRVMNNDELETNLSISSFKKTLTSMIEKGCTSVVYFASANYERQLPFVIKQAYHRMNNSFIDYVIGLSLPAHLLRPSVLRFCKKEKIPVLRFSLQSIDDLYDVPWSRLQDVLYSYPIVLLPNMNELLEGERKLAEDLWVSLCEAHRIYGTTHPPNSLEAWPKTLLKLVGLYPKKGELRVGGDADYLLYYVARTNATLAETCDLDYDRDKPNVVVLRGSVLKANEVTSIRPGGGRRIRITRPGQFIPVSEASHWGM,not soluble
8,GPGSMWALTCRPIQNTEALQLMERYKAHNALQSNQWLLPRHLACFAVRPLYPAQLVLPTSSVIRLPLSAVPFSSLPLSRKREVFGLYPPPCTPPGSCSLLECSGAAMRWRPASLSECFDAAFVRSDSPSSHQHLLCATDCAGSVTVAEEVTVFNAQETNNPFLVDADLVHRNLLTKEAYEHSIGSSLTTIAAQFRYTSFEWVEATAAAAVGLRVRSSAAPHLVNCVDMLRVVHISQLPYTRQQELVAEIPRMTLIKSMTISYIFYHTRWRHHKSMELMRPLLHSNIPCCDTPQAQALQPLLWIAVDLDMEFRGPVMECARHSRTQFYNSQQLEVDTCAVPSRS,soluble
9,MKRSLLACAMSCMMLTVSAHSDFDVRNVDSQFHVPEIGGGVGLIDQQKERQIGEKVFREIQKQMPVVHDPWLQEQYSQIFLRVLAQTSITQPVGLVIIKDPQINAFAVPGGLFALNTGLIANARNIDEVAGVMAHEVAHVTQRHYSRSQEAFKGQGLLALAGILVGAAVATTSNADVGSAVMLGTQAALMDRQLTYSRNQEREADRIGMQYMYAAGYNPQSMADFFETMQRSRVGSSFMPDFWMTHPLTTERMSEARLRANQLPKVETKLYDPNFQLLKWYTLAVSDPSSEKILENVVKQGNKEAQLALGAYYVGQGDFVKAQKQLDDIKSQFNENTLYCLIQTNIYLGQNELDQAYSSIVNIQRAMPESRALAYKLAEVMILQGKAGDTLQLIQPFVNRNPRDLEGWQLMQQASSIDRISPVQTVNTLRYRAEVQFWSGNEENAIKSLLHAQRLAKGNESLSARIDSRLKQMQSDYTMKI,not soluble
10,MKGVHHRPHEAVPTWACGWGVATTEHMAVSRRKHFSSICLHAQGSSRLPVLSTGTAVSELLRTSLCQVVELGPSPYLSLVPTVLLTVQHLGALAWGWRPW,soluble
11,MPEIRLRHVVSCSSQDSTHCAENLLKADTYRKWRAAKAGEKTISVVLQLEKEEQIHSVDIGNDGSAFVEVLVGSSAGGAGEQDYEVLLVTSSFMSPSESRSGSNPNRVRMFGPDKLVRAAAEKRWDRVKIVCSQPYSKDSPFGLSFVRFHSPPDKDEAEAPSQKVTVTKLGQFRVKEEDESANHHHHHH,soluble
12,MSLAYGSLLFKRFSITIKYRKLIVEHIEKGDLKLTEEFKNILRDLMVTTFKKADSILIEKCKAEEKHYSSCTGVVLLFIKDILVNAHIGDSRSVACTYSNSINLAQFLTIDHKPDQPLEYRRIVENGGSVEYLQNHNNKPFLRGGDFTRRRARGETPMQLQYSRAFGGKDLKPYGLSCVPDISIISLNQNNRLFIIATDGIWDLLSAQQSCDLSFYSQELGIQPARYLVNAVLEETRNRNTNCDNLTAICIMHIKNEGHHHHHH,soluble
13,MSRVGVMVLGPAGAGKSTFCNSIISHMQTVGRRAHIVNLDPAAEATKYEFTIDIRDLISLDDVMEEMDLGPNGALIYCFEYLLKNLDWLDEEIGDFNDEYLIFDCPGQIELYTHIPVLPNIVRHLTQQLNFNLCATYLLEAPFVIDSSKFFSGALSAMSAMILLELPHINVLSKLDLIKGDINKKKLKRFLNPDAMLLMETEGMNQASNPKFLRLNQCIANLVDDFGMVQFLPLESNNPDSIETILSYVDDITQWAEGQEQKEPNDQIDVEE,soluble
14,MAHHHHHHMTVGAAALCEYYGYLPRLVRHTGLLPSTRTSVTSSMAATVLQSSLYEADPSPPVRSGEFELPSTYSLHKPLVYDIAALPPKPVSSLRLVIISDTHERHREMSVPNGDVLVHCGDIQEGLNFVRDVKAMLIDFSAWFTDSALHPHPVKLIIAGNHDKAIAAMSTEDVRRLFAPAVYLCEDSVVVEPAGVRFYGSPRSISNSRWSPNTAFQGKKAWKRFVFASARQDDEAGAVSTASRCSSEQPLRSRLEGATPGGPVDVLVVHQSPDIPRAHHSVSEQPICAYAQQVAPRRVLLCGHLHGAHGMHRLPVPEHVRKSFRIATRGGGGQPEGVVRMDEIPHLPCINAAMMTGRFGQNVLLPPSVVDLEL,not soluble
15,MSLIHEISENEKPREKLQNYGIEALSSSELVALIIETGTKNESVLTIANRIIMKFKNVGEMQYASIEEFQLVNGIGIAKASKIMAAIELGRRIGIVTEQEEVVVRCPEDAVKLVMPELAFLFQEHFHCLFLNTKNQVIYRQTIFVGGLNASIVHPREVFRLALRKSAASIMCFHNHPSGDPTPSSEDLLVTKRLAEAGNIVGITLLDHIIIGKNKYISLKEKGYFEGHHHHHH,not soluble
16,MAHHHHHHMTEKENGNKDKRRKEKHRKHHRDRRESCNGVVNSSAAKTRPETAVAIEGADEEVENWDENRTRVDQLCQTYPNNMCNDCNNAGTRWASVNHGVFLCIRCSGIHRSLGVHVSKVKSANMDKWSAAEVHLMELIGNQRAKLLYEAHLPKDMKPMTFAESDATLQTFIQRKYQEKAFSVEAVDEKLRQYHKEARYGKKPKRNSSASRKKKANDGANDKAERSLKGEDTIKALYGSNAEVISKMSKRTGPIRGTFGVVNVGPEAYDERRKTLLEQFGFS,not soluble
17,MDFLNDFDPSDDENNCKHQEKPTYLPFKPNFHEKYWYRNALKENQTATAITEIDLFRVADCYHNGDFECAENILTGLRESTKNNRTHEIMLIDSLLQCSIKKTSELSSPETSISLQFLSYYESILVDFGDQIQFLRTKAFLLSKLPFTSNYQKEFKNTMALLCQLCGSFENWQLFEIGSKYFTKLEMFGLKLKMKKVLKYEIDHSKGFIQEKLKKRLEKITKELNELEGELESNIIESIHSSINSHKDTTTVESTPNSEFRAHESRSKNKLIPVSDQPATIEDFFHRFPFLSF,not soluble
18,MGSSHHHHHHGGTGENLYFQGGSGDLLHFISLVIDLRDYPGYATCIRATEYPGLALCEYNAVAGMRYTVPLGYAASAVYFYLYHRPRLSFADRSLTKLHHYFYPSAGYSTPLGIIGGVICGAAECVQGLTPAALEATAAREKAAAVMAAEQYSQRHRAVKERLKAEQSFASKALAWLQLCEDPVQAELARMGLGEDSIAWETLLVPQGYLWTQLHSVVHDPARYRGYEAPVATGAAVPTSADERLSQPSGGANTPCPSPSGVLSLSRAYFTKPQVDAVVSRIGTLRTSPEEDRWMRSAGRCGAYGVFGMLLTWNSGGALFRAQMGLGLGVVIAGLASATRLDEVFAHL,not soluble
19,MSITINKLEIENVKRIKAVKIEPSATGLTIIGGNNNQGKTSVLDAIAWALGGNKYKPSQAMREGSQVPPTLKITMSNGLIVERKGKNASLKVIDPNGQKGGQQLLDSFVEELAINLPKFMDSTPKEKADVLLEIIGVGDQLAELELKEKEIYNQRHAIGVIADQKEKFAKEMTYYPDAPKQLVSISELIQQHQAILAKNGENAQKRQNVERIRYDYNQSILEVDRLRKLLADAEAKTNKLSEDLKIANTDAMDLHDESTAEIEANIADIDEVNRKVRANFDKDKAEEDAKQQREQYNILTNDIESIRQQKRDLLINADLPLEGLSVDDGKLLYLGQEWDNMSGSQQLIVATAIVRKLKPDCGFVLIDKLEQMDNITLEQFGKRLEQEGLQAIATRVSIGEECAIIIEDGYSVENKAHNFKTAEGGNFAETVAPTWKGEF,not soluble
20,MIEVKHLKTLQALRNCGSLAAAAATLHQTQSALSHQFSDLEQRLGFRLFVRKSQPLRFTPQGEILLQLANQVLPQISQALQACNEPQQTRLRIAIECHSCIQWLTPALENFHKNWPQVEMDFKSGVTFDPQPALQQGELDLVMTSDILPRSGLHYSPMFDYEVRLVLAPDHPLAAKTRITPEDLASETLLIYPVQRSRLDVWRHFLQPAGVSPSLKSVDNTLLLIQMVAARMGIAALPHWVVESFERQGLVVTKTLGEGLWSRLYAAVRDGEQRQPVTEAFIRSARNHACDHLPFVKSAERPTYDAPTVRPGSPARL,soluble

# Source: the DeepSol protein solubility set
